Source: article PMC10620216

Biological target: anti-StrepTagII pentameric IgM with J-chain
Assay: mass photometry; Refeyn OneMP, in PBS, measurement concentrations typically around 5–20 nM, recorded for 120 s; oligomeric state of the antibody in solution

B1: anti-StrepTagII pentameric IgM with J-chain (antibody, V domains shown)
VH: EVQLEQSGPELVKPGASVKMSCKASGYTFTNYYMKWVKQSHGKSLEWIGDLNPNNGDTFYNQKFKGKATLTVDKSSNTAYMQLNSLTSEDSAVYYCARTGRYEENAMDYWGQGTSVTVSS
VL: ELVMTQSPASLAVSLGQRATISCRASESVDSYGKSFMHWYQLKPGQPPKLLIYRASNLESGVPARFSGSGSRTDFTLTIDPVEADDAATYYCQQNNEDPWTFGGGTKLEIK
percent (m/m) of IgM in pentameric configuration: 85 % (m/m)
stoichiometry N: 5
